The text below walks through data of a protein production outcome set (Wang et al. 2014).

This data set can be described thus: label from the status in PepcDB records.
For “MDRRDYYVEYYEVLDRVLSDYVNQLREKREHWLKMGGHDVGVPLINLLFWQFTWHREEYDRLRKEGKSCGEALGSVKEILADKQVEEWERQEEEYKIYDHEWYEALAPYGGQLVIYIYNARQLVYLTPLIERLEEPVLLLSEYEIPDETELPDFVTAITLEFTKTVPLVNPFLKEWFPLIFQYANTFDILMRILQPKGLIFLEGCHYQQLLLATIGRDYGIPTLCIQQGWPSLMHTAFRRMPYRYYLMWGEGFRTLWEKHNPLPDFVPTGYMYQVEPRNETKKECVTFFLQGPFFLSDKRYLQEMIRLIGTVAAEFPARRFLVREHPEFRIGEEVRMEWEQIPNIEMVTDGKLAEVFARTRVGVAHYSSSLMEGVAHGAVPLVYDPTEGSRYSPDVEAEGLGMIAKTKEELTGGLSRILGNYEDFKQRIEKEQPLWFQATGEETLRNMVGFIKEKMPPVTLKEIYVVDTDTLTRERPVGVSGLLRCKNCEDFLEMCIDSCIDGLDELIAVYHDCTDRTPEILRQKAAQYPDKIRVFEYQPSVYPIDLDEEELEKAKLLPPDSIHTLAGYCNYALSKASYRYAVKIDADQVYFTDRLKHICDAYRSDKKVRFNVAECISYNLYRAYVDSFNRIEMRPFRWLERIALWTHASYASYLEKMIIRYKVPVSMSGINLFRKDREWMVGLGQEHPEPDSKEILPPFNGVRDTFFFEVSEDRIFRYMTETKLDGRHRGVEVMRCPNEILDVGFCWFHLRALMKEHEEGYRQSYRKHPERFIPLGTFVKLSYRNLQQRYKPFVAVRWAEPVFAYFFMTGKGRIPWKKLKEIE”, the protein production result is given as “failed”.
In the case of “MDRSPERRTAVMIWGALVAGPALFLVVALALPLAGEPAPGIAQPLLLVLTGLVLVEVPLSWLWAVRARLAGKAGGEAISVEEQARTRLIIAAALCEGAALFAVVVFMVTRDARALPLFAIAFGALLAHYPGDRHWARLCRGSGAGSSAPPNRLMRG”, the protein production entry was “failed”.
For “MDSAAPDCTAKCRSLKHALDVLSVITKGSERQIKIFLSSYCYNAATVKDAFGRNALHLVSSCGKKAVLDWLIEKGVDLLHGVSLYMQDKEGLSPLDLLMKDRPAHVVFKNTDPTEVYTWGDNTNFTLGHGSQNSKHHPELLDLFSRSRVYVKQVVLCKFHSVFLSQQGQVYTCGHGRGGRLGHGDEQTCLVPRLVEGLSGHSCSQVAAAKDHTVVLTEDGCVYTFGLNTFHQLGIIPPPSSCNVPRQSRSSKHGHNSAQLQLIPGERQLNLKKVLVSGGCMEYKVDPEHLTENGGQKICILAMDGAGRVFCWRSLSSSLKQCRWAYPRQVSISDIALNRNEILFVTQDGEGFKGKWFEDKRKNSEKKADILPNLHHSSSDVSCVSDTNSVYERIRLEKLPFAHRAVSVSTDPSGCNFAILQSDPKTSLYEIPVVSSSSFFEEFGKLLRETDEMDSFHDVTFQVGNRLFPAHKYVLAVRSDFFQKLFLSDGTLLELTDVYRKDEDAAGCHLFVVEKVHPDLFEYLLQFMYTDTCDFLTHGFKPRMIMNKKSEDSKGSPESRLHAVNCHVDDKQKSAFEVYRSNQAHTLSERQKSKPKSSKKGKGVGEDDPVKMLQNVAKKFGLSNLSSRLDGVRYENEKINVIAKKTGNKLKLSQKKCSFLYDVTMKSVDGKEFPCHKCVLCARLEYFHSMLSRSWIEASSCAALEMPIQAEILKVILDYLYTDEAVVIKESQNVDFVCSVLVVADQLLITRLKEMCEVALAENLTLKNAAMLLEFASMYNAEQLKLSCLQFIGLNMAALLEARSLDVLSEDVLKDLSIFYRKMVPAMERRVITPYQDGPDISCVQAEDGEVFLKEEISLEPNHSPWLSSSLAASPAVAPVTFASIVEEERQQEAALIRSREKPLALIQVEEHAIQDLLVFYEAFGNPDEFVIVERTPQGPVAVPMWNKHGC” the value was “failed”; for “MDSAAVAFTTLDYVIFGVYLFVIVGLGLWVSQEEEGEEKDSADYFLASKALPFWAIGSSLIAANISAEQFIGMSGSGFRVGLAIASYEWMAAVTLLVIAWFFLPIYLEKEIYTMPQFLEERYDGRVRMLLAIFWLLVYVFVNLTSVLYMGGLSINVIMGFPLWASVLGLAAVATAYSLYGGLKAVAWTDVVQVVVLVGGGLLTTWVALDAYGGSEAGVVGGFTQLMGDASGRFNMILFEGELMYRNDEGALKDAYQLLPGLSVLFGGLWVANLFYWGCNQYIIQRALAAKSLKEAQRGLAFAGYLKLLLPLIVVVPGIVAFALDAPIQRGDEAYPWLLGEYVGSGFRGLAFAALVAAIISSLASMMNSASTIFTMDLYRNYTSREDVSERRLVRIGRAVALICIVVAAALAPQLADLDQVFQYIQEYTGFVSPGVLAIFVLGLFWSKATPNAALVSAVLSIPLSAAFKFWTPGVAFLNRMLIVFFISVALIVAISLLENEGEDHPKAIDVGGIERERDPIYNVAAFGILAITAALYAFFW”, “failed”; for “MDSFKVVLEGPAPWGFRLQGGKDFNVPLSISRLTPGGKAAQAGVAVGDWVLSIDGENAGSLTHIEAQNKIRACGERLSLGLSRAQPAQSKPQKALTPPADPPRYTFAPSASLNKTARPFGAPPPTDSALSQNGQLLRQLVPDASKQRLMENTEDWRPRPGTGQSRSFRILAHLTGTEFMQDPDEEFMKKSSQVPRTEAPAPASTIPQESWPGPTTPSPTSRPPWAVDPAFAERYAPDKTSTVLTRHSQPATPTPLQNRTSIVQAAAGGGTGGGSNNGKTPVCHQCHKIIRGRYLVALGHAYHPEEFVCSQCGKVLEEGGFFEEKGAIFCPSCYDVRYAPSCAKCKKKITGEIMHALKMTWHVPCFTCAACKTPIRNRAFYMEEGAPYCERDYEKMFGTKCRGCDFKIDAGDRFLEALGFSWHDTCFVCAICQINLEGKTFYSKKDKPLCKSHAFSHV”, “failed”.
“MDSFMESLNRLKEAHEKEVLGLQNKLLELNSERCRDAQRVEELFAKNHQLREQQKALKENLRVLENRLRAGLCDRCMVTQELARKKQLELENAHLQSLQHLCILTNEMNGLREENKILKEEVKRLRSLGDKTAPQAWEGTSEPPSPLPLPSPRQASGPP”: the protein production entry is recorded as “failed”.
Regarding “MDSGESGPQQWAGVVKVNDRMGYVTFTDAAGTELIPTNTIPVTLNARMAYIYCQVDEGQDLSTNPKSIKITLLADPTGIDATAITTPKVGESGDVTTNAPVGSLSFVSGYSTVAPFQFSENTIVLPVLYRVKNVTTTEDIKNELAKHTFTLVCYTDDIKSGDTILKLYLRYKVEDEPAAIAERATRTSSFKAYEISQILREYTLKSGQTKPAKITIVAQQNEYNNKLEDTSTIEKVYEIEYKTAE”, the protein production result was “not failed”.
For “MDSKEGKLTVIGEFDEMQILKKLKKRWESAKMATFGPFDPKKEAETAAAAEKKKKEENEREREREREEALYRSQSHHDTPVCPMHHHTTIVCDHDHGCIIS”, the protein production entry is reported as “failed”.
For “MDSKIDFSSYSLNDLYSSAESIDRDVYPERAKEIDGLIRQKEAEFPEEIDTTKDIGEKATKSDRLMAAIIDGVIGIISLVPVIFYVGFDSFKEPSLSLLGILFIYGVFVTMVLHGYLLYYYGQTIGKNYMSIRIENLDGTKASLATIYFKRMLPMQLIGLIPSFGQFISGIVNPLFIFGKQRRCLHDYLAKTKVSYTGT” the value was “failed”.
For “MDSPIINEQFWDALFFNGTMPWDRSQTPNELKHYLKRIADKTHSVFIPGCGAAYEVSHFVDCGHDVIAMDYSAEAVNLAKSQLGQHQDKVMLGDVFNADFSREFDVIYERAFLAALPREIWGDYFAMIERLLPSNGLLVGYFVISDDYRSRFPPFCLRSGEIEQKLEANFHLIESTPVTDSVDVFKGKEQWMVWQKLEHHHHHH” the value was “failed”.
Consider “MDSYSITNVKYLDPTELHRWMQEGHTTTLREPFQVVDVRGSDYMGGHIKDGWHYAYSRLKQDPEYLRELKHRLLEKQADGRGALNVIFHCMLSQQRGPSAAMLLLRSLDTAELSRCRLWVLRGGFSRWQSVYGDDESVTAGYLPDLWR”, for which the protein production result was “not failed”.
